According to a protein production outcome set (Wang et al. 2014):

Assay: label from the status in PepcDB records
For “MAAFQIANKTVGKDAPVFIIAEAGINHDGKLDQAFALIDAAAEAGADAVKFQMFQADRMYQKDPGLYKTAAGKDVSIFSLVQSMEMPAEWILPLLDYCREKQVIFLSTVCDEGSADLLQSTSPSAFKIASYEINHLPLLKYVARLNRPMIFSTAGAEISDVHEAWRTIRAEGNNQIAIMHCVAKYPAPPEYSNLSVIPMLAAAFPEAVIGFSDHSEHPTEAPCAAVRLGAKLIEKHFTIDKNLPGADHSFALNPDELKEMVDGIRKTEAELKQGITKPVSEKLLGSSYKTTTAIEGEIRNFAYRGIFTTAPIQKGEAFSEDNIAVLRPGQKPQGLHPRFFELLTSGVRAVRDIPADTGIVWDDILLKDSPFHE”, the protein production was “not failed”.
With “MAAHDDDMNRGIRPGRGSDDPAGQIAYLEQEIAVLRRKLADSPRHTRILEERIVELQTNLAGVSAQNERLANTLREARDQIVALKEEVDRLAQPPAGFGVFLTANEDGTADIFTGGRKLRVNVSPSVELEELRRGQELMLNEALNVVEAMEYESVGDIVTLKEILEDGERALVVGHTDEERVVRLAEPLLDVTIRPGDALLLEPRSGYVYEVVPKSEVEELVLEEVPDIGYEQIGGLGNQIEMIRDAVELPYLYPDLFKEHELRPPKGVLLYGPPGCGKTLIAKAVANSLAKKVAEVTGQATGKSFFLNIKGPELLNKYVGETERQIRLVFQRAREKASEGTPVIVFFDEMESLFRTRGSGVSSDVENTIVPQLLAEIDGVEGLQNVVVIGASNREDMIDPAILRPGRLDVKIKIERPDAEAAKDIFGKYLTERLPLHTEDVGEHGGDRSATVHGMIQTAVEQMYAESEENRFLEVTYANGDKEVLYFKDFNSGAMIENIVGRAKKMAIKDFLEHSQKGLRVSHLLQACVDEFKENEDLPNTTNPDDWARISGKKGERIVYIRTLITGKQGADTGRSIDTVANTGQYL” the protein production was “failed”.
For “MAAKFHLKKAKDGQFHFNLHAANGEIILTSELYKAKDSALGGIESVRKNSQRDGAFEVKPANNGKFHFVLKATNGQVVGQSQLYASQANAEAGVQSVKRATPEAGLSDESLEHHHHHH”, the protein production was “not failed”.
In the case of “MAALRYAGLDDTDSEDELPPGWEERTTKDGWVYYANHTEEKTQWEHPKTGKRKRVAGDLPYGWEQETDENGQVFFVDHINKRTTYLDPRLAFTVDDNPTKPTTRQRYDGSTTAMEILQGRDFTGKVVVVTGANSGIGFETAKSFALHGAHVILACRNMARASEAVSRILEEWQQGAATTVYCAAVPELEGLGGMYFNNCCRCMPSPEAQSEETARTLWALSERLIQERLGSQSG”, the protein production is reported as “not failed”.
In the case of “MAAMPKPAAFWNDRFANEEYVYGEAPNRFVASAARTWLPEAGEVLLLGAGEGRNAVHLAREGHTVTAVDYAVEGLRKTERLATEAGVEVEAIQADVREWKPARAWDAVVVTFLHLPADERPGLYRLVQRCLRPGGRLVAEWFRPLEHHHHHH”, the protein production is reported as “failed”.
In the case of “MAAMQWCGAMTRRIMMTQRTSAALNCSARYSSLSPACAAPAVSEMDLCGRGDKKTKKGKRFKGSYGNSRGKKQKMIERIKDKLELPRSTPWPLPFKLI”, the protein production is reported as “not failed”.
In the case of “MAANDRAAAPGKSGGSAGADGLMRASLSAVAPGTSLRDGLERVLRGNTGGLIVLGSDKTVESMCTGGFVLDVEFTATRLRELCKLDGGIVLSSDLSKILRAGVQLLPDPTIPTEETGTRHRTADRVSKQVGFPVVSVSQSMRLIALYVDGQRRVLEDSAAILSRANQALATLERYKLRLDEVAGTLSALEIEDLVTVRDVSAVAQRLEMVRRIATEIAEYVVELGTDGRLLALQLDELIAGVEPERELVVRDYVPEPTAKRSRTVDEALAELDKLSHAELLELSTVARALGYTGSPETLDSAVSPRGFRLLAKVPRLPGAIIDRLVEHFGGLQKLLAASVDDLQTVDGVGEARARSVREGLSRLAESSILERYV”, the protein production is reported as “not failed”.
With “MAANGVRRALQASSSSGKILFGRSSAATSASKIGKSAGIAFGNGSSSSTRPSLRRLTFSRVPVELSAGISLIPLHSVTASALLTSLLSLSNQNWSCLSEGKFFTCVHDLCLELKLILNFCFQTRSKCSLNW” the protein production was “failed”.
For “MAANNSIEWRAVCEKFRLAQELSEIESKKDPENNPFRSKYKARDLLKEIHCSLKKIEIEEQGEAGDEADCESSQTADGEPEDGFEKTFTGDSAAGLRAARLAVLQYHLGVNHIETEELSAGELHLMVCMKLIDKCTTTRENVSLFIHVRNQLGILWAGRDEIEKAQGFLEIAETMYLVYMKEDGQPPLDLQDFFVPEGESQSFTGVLQLRSAVLRGESRSQERCRNRARAEYGDGLPAPSEDQQNSIHSGLLQLKW”, the protein production was “failed”.
In the case of “MAANVSGAKSCPANFLAAADDKLSGFQGDFLWPILVVEFLVAVASNGLALYRFSIRKQRPWHPAVVFSVQLAVSDLLCALTLPPLAAYLYPPKHWRYGEAACRLERFLFTCNLLGSVIFITCISLNRYLGIVHPFFARSHLRPKHAWAVSAAGWVLAALLAMPTLSFSHLKRPQQGAGNCSVARPEACIKCLGTADHGLAAYRAYSLVLAGLGCGLPLLLTLAAYGALGRAVLRSPGMTVAEKLRVAALVASGVALYASSYVPYHIMRVLNVDARRRWSTRCPSFADIAQATAALELGPYVGYQVMRGLMPLAFCVHPLLYMAAVPSLGCCCRHCPGYRDSWNPEDAKSTGQALPLNATAAPKPSEPQSRELSQ”, the protein production is reported as “failed”.
In the case of “MAAPLAPWRVSAFNTAKQSENKMHDDTVARRFGFTGGLVPGVEVMAYMMHLPVARWGRDFLERGLIEARFVKPVYDGETATVTGEEQGEAITLAVESRGELCATGSASLPVRAPAVDLGAYPETAAATNRPPVGAQSFPEGHWFGTAPVNWGGAKLRDYLDEIRETDPIYRSDDLIHPGTLQRIMNRVLVDNVVLGPWIHVGSKMQLLAAARGDDVLTARAKVVANYDKKGHRFAEFDALIVANGDRPVAHCHHVAIFAPRQQAAA”, the protein production is reported as “failed”.
With “MAAPMEVAVCTDSAAPMWSCIVWELHSGANLLTYRGGQAGPRGLALLNGEYLLAAQLGKNYISAWELQRKDQLQQKIMCPGPVTCLTASPNGLYVLAGVAESIHLWEVSTGNLLVILSRHYQDVSCLQFTGDSSHFISGGKDCLVLVWSLCSVLQADPSRIPAPRHVWSHHTLPITDLHCGFGGPLARVATSSLDQTVKLWEVSSGELLLSVLFDVSIMAVTMDLAEHHMFCGGSEGSIFQVDLFTWPGQRERSFHPEQDAGKVFKGHRNQVTCLSVSTDGSVLLSGSHDETVRLWDVQSKQCIRTVALKGPVTNAAILLAPVSMLSSDFRPSLPLPHFNKHLLGAEHGDEPRHGGLTLRLGLHQQGSEPSYLDRTEQLQAVLCSTMEKSVLGGQDQLRVRVTELEDEVRNLRKINRDLFDFSTRFITRPAK” the protein production was “failed”.
For “MAAQAAAAAQAAAAAQAAAAQAAQAEAAESWYLALLGFAEHFRTSSPPKIRLCVHCLQAVFPFKPPQRIEARTHLQLGSVLYHHTKNSEQARSHLEKAWLISQQIPQFEDVKFEAASLLSELYCQENSVDAAKPLLRKAIQISQQTPYWHCRLLFQLAQLHTLEKDLVSACDLLGVGAEYARVVGSEYTRALFLLSKGMLLLMERKLQEVHPLLTLCGQIVENWQGNPIQKESLRVFFLVLQVTHYLDAGQVKSVKPCLKQLQQCIQTISTLHDDEILPSNPADLFHWLPKEHMCVLVYLVTVMHSMQAGYLEKAQKYTDKALMRLEKLKMLDCSPILSSFQVILLEHIIMCRLVTGHKATALQEISQVCQLCQQSPRLFSNHAAQLHTLLGLYCVSVNCMDNAEAQFTTALRLTNHQELWAFIVTNLASVYIREGNRHQELYSLLERINPDHSFPVSSHCLRAAAFYVRGLFSFFQGRYNEAKRFLRETLKMSNAEDLNRLTACSLVLLGHIFYVLGNHRESNNMVVPAMQLASKIPDMSVQLWSSALLRDLNKACGNAMDAHEAAQMHQNFSQQLLQDHIEACSLPEHNLITWTDGPPPVQFQAQNGPNTSLASLL”, the protein production was “failed”.
In the case of “MAARGFRAGADHLRHQFCPPLVDPHRPWTARMKLLALSGSLRADSVNTALLRALAEAAPAGVEVCFFDGLRDLPLFNPDAEERENAAVTAWRAALRGADAVVISSPEYAHGIPGAFKNALDWVVGSAEFDGKPTLLLCASARPQHAPAQLAEVLRTMGARVQGPHLLDLPGNVAAAQSALRTPAQQAEARELLAALLP”, the protein production is reported as “failed”.
With “MAASMARGVSARVLLRAAGGSWGPRAGHAAVTSRTFGSTGERRAGEDEADSPELPRDVVNVVFVDRSGKRIPVRGRVGDNVLHLAQRHGVDLEGACEASLACSTCHVYVSEAHLDLLPPPEEREDDMLDMAPLLQENSRLGCQIVLTPELEGAEFALPKITRNFYVDGHIPKPH” the protein production was “failed”.
For “MAASQTPARILVTGVAGNLGRKVVEALASTPWCTSIIGVDWVEQSMQFSPQAAQRLRWVVADLTQADGAWTALLDEVDAVIHLAAIHSTPDATWEQALASYGMTLNVLQAAATRGVRRFVFASSNHAMGAYKDQPLAGTIGPGRLIAELAPAPGTRWHNGIEEVYSLAYGTSKAMGERLCKAVAAVSGGRLSVVALRIGWALPDDNDPNDINHSGTADTPVPGSVPDEASRIALRWFRNMWLSNDDLRQLFIAAVTADPARWPAPAIVVNGVSNNTGMDWGLETGRALIGYEPQDDLYARLTQPA”, the protein production was “failed”.
In the case of “MAASSLATQPAMKLAPDDLDSITATTLGHYQQVAEDFREGTRDHDVSQNIDALLRHIQGSAPFTVLDFGCGPGRDLQAFTRLGHVAIGLDGCERFAQMAREDSGCEVWQQDFLKLDLPAERFDGIFANAVLFHIPRQELPRVLKQLHASLKDGGVLFSSNPRGDNQEGWNGPRYGAYHDLAAWQALLTDAGFVELEHYYRPAGLPREQQPWLASVWRKA”, the protein production is reported as “failed”.
For “MAASVANCCFSVLNASVKIQSSSISSPWCFVSASSLTPRASSNIKRKSSRSDSPSPILNPEKNYPGRVRDESSNPPQKMAFKAFGSPKKEKKESLSDFSRDQQTDPAKIHDASFLNAVVKVSKSNSLSSLKFTLLAFEPTRASFQVYCTHTAPDYSLPWQKQRQFTSTGSAFMIGDGKLLTNAHCVEHDTQVKVKRRGDDRKYVAKVLVRGVDCDIALLSVESEDFWKGAEPLRLGHLPRLQDSVTVVGYPLGGDTISVTKGVVSRIEVTSYAHGSSDLLGIQIDAAINPGNSGGPAFNDQGECIGVAFQVYRSEETENIGYVIPTTVVSHFLTDYERNGKYTGYPCLGVLLQKLENPALRECLKVPTNEGVLVRRVEPTSDASKVLKEGDVIVSFDDLHVGCEGTVPFRSSERIAFRYLISQKFAGDIAEIGIIRAGEHKKVQVVLRPRVHLVPYHIDGGQPSYIIVAGLVFTPLSEPLIEEECEDTIGLKLLTKARYSVARFRGEQIVILSQVLANEVNIGYEDMNNQQVLKFNGIPIRNIHHLAHLIDMCKDKYLVFEFEDNYVAVLEREASNSASLCILKDYGIPSERSADLLEPYVDPIDDTQALDQGIGDSPVSNLEIGFDGLVWA”, the protein production was “failed”.
With “MAATTNFTKSMLFPFSHVSGNASLNSQRRTWPKQYKSKNGYRSLRVNGLFGGGNKDNNSEDGQSKAGIFGNMQNMYETVKKAQMVVQVEAVRVQKELAAAEFDGYCAGELVKVTLSGNQQPIRTDITEAAMELGSEKLSQLVTEAYKDAHAKSVVAMKERMSDLAQSLGMPPGLSEGMK” the protein production was “failed”.
For “MAAVGSGGYARNDAGEKLPSVMAGVPARRGQSSPPPAPPICLRRRTRLSTASEETVQNRVSLEKVLGITAQNSSGLTCDPGTGHVAYLAGCVVVILDPKENKQQHIFNTARKSLSALAFSPDGKYIVTGENGHRPAVRIWDVEEKNQVAEMLGHKYGVACVAFSPNMKHIVSMGYQHDMVLNVWDWKKDIVVASNKVSCRVIALSFSEDSSYFVTVGNRHVRFWFLEVSTETKVTSTVPLVGRSGILGELHNNIFCGVACGRGRMAGSTFCVSYSGLLCQFNEKRVLEKWINLKVSLSSCLCVSQELIFCGCTDGIVRIFQAHSLHYLANLPKPHYLGVDVAQGLEPSFLFHRKAEAVYPDTVALTFDPIHQWLSCVYKDHSIYIWDVKDINRVGKVWSELFHSSYVWNVEVYPEFEDQRACLPSGSFLTCSSDNTIRFWNLDSSPDSHWQKNIFSNLAPALQMCGRGHSRQPNTPSPGEIAS”, the protein production was “failed”.
